Paper PMC9950733, “Screening and epitope characterization of diagnostic nanobody against total and activated Bacteroides fragilis toxin” (Frontiers in Immunology, 2023)

T1: recombinant Bacteroides fragilis toxin 1 (BFT1), full length without signal peptide (Bacteroides fragilis (enterotoxigenic), …)
T1 chain: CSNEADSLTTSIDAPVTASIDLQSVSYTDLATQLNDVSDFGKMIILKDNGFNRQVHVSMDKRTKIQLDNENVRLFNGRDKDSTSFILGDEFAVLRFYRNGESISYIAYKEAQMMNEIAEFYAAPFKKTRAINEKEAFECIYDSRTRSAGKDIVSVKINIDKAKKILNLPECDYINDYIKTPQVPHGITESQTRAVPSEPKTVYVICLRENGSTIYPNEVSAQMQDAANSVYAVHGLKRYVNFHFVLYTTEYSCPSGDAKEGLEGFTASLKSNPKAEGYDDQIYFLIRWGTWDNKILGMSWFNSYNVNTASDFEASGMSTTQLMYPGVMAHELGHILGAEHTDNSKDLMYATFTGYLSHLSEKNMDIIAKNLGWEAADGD


Experiments:
[1] = target: T1, recombinant Bacteroides fragilis toxin …
[2] = target: T1, recombinant Bacteroides fragilis toxin …; assay: ITC; Microcal ITC 200, 25°C; 20 mM Tris pH 8.0, 150 mM NaCl, 5% glycerol; nanobody (20 μM) injected into BFT solution (200 μM); one binding site mode; settings: both partners purified
[3] = target: T1, recombinant Bacteroides fragilis toxin …; assay: as above; settings: both partners purified

| Binder | binding result [1] | stoichiometry N [2] | Kd [3] [nM] | dH [3] [kcal/mol] |
| --- | --- | --- | --- | --- |
| Nb3.61 (VHH) VHH: QVQLQESGGGLVQPGGSLRLSCAASGFSFSSYAMTWVRQAPGKGPERVSIINPSGRTTNYADSVKGRFTISRDNAKNTLYLQMNSLKPEDTALYYCARKPPMAEEYDYRGQGTQVTVSS | binds | – | – | – |
| Nb2.74 (VHH) VHH: QVQLQESGGGLVQPGGSLRLSCGASGFTFNGYAMSWVRQAPGKGPEWVSGINTIGNTTYYADSVKGRFTISRDNAQNTLYLQMNSLKPEDTALYYCARKPFGSTWTEYDYRGQGTQVTVSS | binds | – | – | – |
| Nb3.88 (VHH) VHH: QVQLQESGGGLVQPGGSLRLSCAASGLTFNGYAMSWVRQAPGKGPEWVSGINTIGTTTYYADSVKGRFTISRDNAKNTLYLQMNSLKPEDTALYYCARKPFGSTWSEYDYRGQGTQVTVSS | binds | – | – | – |
| Nb3.74 (VHH) VHH: QVQLQESGGGFVQTGGSLRLSCERSGTTFDSFAMGWFRQAPGKERESVGTINWSGDRTYYADSVKGRFTISRDNAKNTVYLQMKKLKPEDTAVYYCAQIRGTYLDGSPGSWGQGTQVTVSS | binds | – | – | – |
| Nb2.41 (VHH, from round 2 of bio-panning; source: E. coli WK6 periplasm, purified (Ni-NTA, SEC on Superdex 75)) VHH: QVQLQESGGGLVQAGGSLRLSCASSGRTFDAWAMGWFRQAPGKEREVVATISWNGDRTYYGDSVKGRFTISRDNAKSTVALQMNNLKPEDTGVYYCAQMEGTYYSGRPSYWGQGTQVTVSS | – | 1 | 1.37 | -20 |
| Nb2.14 (VHH, from round 2 of bio-panning; source: E. coli WK6 periplasm, purified (Ni-NTA, SEC on Superdex 75)) VHH: QVQLQESGGGFVQTGGSLRLSCERSGTTFDSFAMGWFRQSPGKEREKVATINWSGESTSYTDSVKGRFTISRDNAKNTVYLQMNNLQPEDTAIYYCAQIAGTHYSGTPQYWGQGTQVTVSS | – | 1 | 0.36 | -14.3 |
| Nb3.40 (VHH, from round 3 of bio-panning; source: E. coli WK6 periplasm, purified (Ni-NTA, SEC on Superdex 75)) VHH: QVQLQESGGGFVQTGGSLRLSCERSGTTFDSFAMGWFRQSPGKEREKVATINWSGESTSYTDSVKGRFTISRDNAKNTVYLQMNNLQPEDTAIYYCAQIAGTYYSGTPQYWGQGTQVTVSS | – | 1 | 2.58 | -13.6 |
| Nb3.63 (VHH, from round 3 of bio-panning; source: E. coli WK6 periplasm, purified (Ni-NTA, SEC on Superdex 75)) VHH: QVQLQESGGGLVQVGGSLRLSCAASGRTFGTFPMGWFRQAPGKEREFVAAISWSGTGTYYANSVKGRFTISRDNARNTVYLQMNNLKPEDTAVYSCAGRNTGRYSTTVYVEESDYGYWGQGTQVTVSS | – | 1 | 3.37 | -18.8 |
| Nb2.82 (VHH, from round 2 of bio-panning; CDR1 Gly26-Thr33, CDR2 Ile51-Thr58, CDR3 Ala97-Asp111; source: E. coli WK6 periplasm, purified (Ni-NTA, SEC on Superdex 75)) VHH: QVQLQESGGGLVQPGGSLRLSCAASGFTFSRYTMTWVRQAPGKGLEWVSNINSDGGRTYYADSVKGRFTISRDNTKNTLYLQMNSLKPEDTAVYYCAIPKRTYVPPSQFDDRGQGTQVTVSS | – | 1 | 11.5 | -17.9 |
| Nb2.13 (VHH) VHH: QVQLQESGGGLVQPGGSLTLSCVGSGFSLEYYAVGWFRQAPGKEREAVACISSWDGLTYLSDSVKGRFTVSRDNVKNTAYLQMNSLKPEDSAVYYCARDRARCRYYSTPNEYDEWGHGTQVTVSS | binds | – | – | – |
| Nb3.4 (VHH, from round 3 of bio-panning; source: E. coli WK6 periplasm, purified (Ni-NTA, SEC on Superdex 75)) VHH: QVQLQESGGGLVQPGGSLRLSCAASGFTFSSAAMNWVRQAPGKGPEWVSGINSSGTTTKYADSVKGRFTISRDNAKNTLYLQMNSLKPEDTAIYYCARKPLWSVGYDYWGQGTQVTVSS | – | 1 | 3.94 | -8.4 |
| Nb2.37 (VHH, from round 2 of bio-panning; source: E. coli WK6 periplasm, purified (Ni-NTA, SEC on Superdex 75)) VHH: QVQLQESGGGLVQPGGSLRLSCVVSRRTFDAWAMGWFRQAPGQERDFVASVNWSGDSTYYADSVKGRFTISRDNAKNTVYLQMNSLKPEDTAVYYCAALAGSYHSRTPLDDYWGQGTQVTVSS | – | 1 | 3.91 | -14.1 |
| Nb3.93 (VHH, from round 3 of bio-panning; source: E. coli WK6 periplasm, purified (Ni-NTA, SEC on Superdex 75)) VHH: QVQLQESGGGLVQPGGSLRLSCAASGSTLARYHIGWFRQAPGKEREGVACISSSGDSTNYADSVKGRFTISRDNANNTVYLQMNSLKPEDTAVYYCVADPLKCILRRGGENRYLEHWGQGTQVTVSS | – | 1 | 5.96 | -22.1 |
| Nb2.59 (VHH) VHH: QVQLQESGGGLVQAGGSLRLSCAFSGRTDDAQYAMGWFRQAPGKERESVGTINWSGDRTNYADSVKGRFTISRDNVKNMMYLQMNSLKPEDTAVYYCARIYGTYLSGSPGSWGQGTQVTVSS | binds | – | – | – |
| Nb2.40 (VHH, from round 2 of bio-panning; source: E. coli WK6 periplasm, purified (Ni-NTA, SEC on Superdex 75)) VHH: QVQLQESGGGLVQAGGSLRLSCAYFGRTFSAWAMGWFRQAPGKERESVATINWSGERTSYADSVKGRFTISRDNAKNTVYLQMNSLKPEDTAVYYCAAMEGTYYSGKPGTWGQGTQVTVSS | – | 1 | 8.72 | -13.5 |
| Nb2.29 (VHH, from round 2 of bio-panning; source: E. coli WK6 periplasm, purified (Ni-NTA, SEC on Superdex 75)) VHH: QVQLQESGGGLVQAGGSLRLSCVASGIIDNINTFGWYRQAPGKQRELVANISRWGNTNYADSSRDGFFISSEDANTTMYLLMMNLKPDDDAVYYCRAEIIGYDNGAHDYWGRGTRITVSS | – | 1 | 1.18 | -15.5 |
| Nb3.27 (VHH, from round 3 of bio-panning; CDR1 Gly26-Ala33, CDR2 Ile51-Thr58, CDR3 Ala97-Asn110; source: E. coli WK6 periplasm, purified (Ni-NTA, SEC on Superdex 75)) VHH: QVQLQESGGGLVQAGGSLRLSCTYSGQTFSAWAMGWFRQAPGKERETVATINWNGERTQYADAVKGRFTISRDNAKDTVYLEMNSLKPEDTAVYYCASMMGTYYSGSPKNWGQGTQVTVSS | – | 1 | 0.828 | -9.47 |
| Nb3.17 (VHH, from round 3 of bio-panning; source: E. coli WK6 periplasm, purified (Ni-NTA, SEC on Superdex 75)) VHH: QVQLQESGGGLVQAGDSLRLSCAASGGSFDMFAMGWFRQAPGKERERVATISWSGDRTVYADSVKGRFTISRDNTKKMLYLQMNNLKPEDTAVYYCAQIEGTHYSGSPSDHWGQGTQVTVSS | – | 1 | 0.66 | -20.3 |
| Nb2.55 (VHH, from round 2 of bio-panning; source: E. coli WK6 periplasm, purified (Ni-NTA, SEC on Superdex 75)) VHH: QVQLQESGGGLVQAGGSLRLSCVRSGHTFDAFAMGWFRQAPGKERESVATINWSGDRTYYADSAKGRFTISRDNAKNTVYLQMNSLKPEDTAVYYCAQMDGTYYSGTPSYWGQGTQVTVSS | – | 1 | 10.6 | -10 |
| Nb3.43 (VHH, from round 3 of bio-panning; source: E. coli WK6 periplasm, purified (Ni-NTA, SEC on Superdex 75)) VHH: QVQLQESGGGLVQAGGSLRLSCARSGRTFSSFAMGWFRQAPGKEREFVATINWSGDKTSYADSVKGRFTISRDNAKNTVYLQMNSLKPEDTAVYYCAQMDGTYYSGSPGYWGQGTQVTVSS | – | 1 | 2.01 | -9.06 |
| Nb2.50 (VHH) VHH: QVQLQESGGGLVQAGGSLRLSCVSSGRTFDAWAMGWLRQAPGKERESVATISWSGDRTQYADSVKGRFTISRDNAKNTLFLQMNNLRPEDTAIYYCALMEGTHYSGRPGTWGRGTQVTVSS | binds | – | – | – |
| Nb2.1 (VHH) VHH: QVQLQESGGGLVQPEGSLRLSCVASGEFTLDYYAIGWFRQAPGKEREELSCISRTGANTNYADSVKGRFTVSRDNAKNTVYLQMNSLKPEDTANYYCAATLGVNNDCSGYVSPDVYDYWGHGTQVTVSS | binds | – | – | – |
